Experimental data taken from article PMC6828814, “A cryptic hydrophobic pocket in the polo-box domain of the polo-like kinase PLK1 regulates substrate recognition and mitotic chromosome segregation” (Scientific Reports, 2019).

How the values were obtained:
[1] = biological target: T1, PLK1 (polo-like kinase 1) polo-box domain (Homo sapiens, UniProt P53350); test: crystal structure (soaking) and competitive fluorescence polarisation with TAMRA-labelled PBIP1 phosphopeptide; assay type: binding
T1 construct: polo-box domain (PBD), recombinant

PLK1 [2] = biological target: PLK1 (UniProt P53350); test: GFP-Trap co-IP, anti-NEDD1 immunoblot; settings: reference: GFP-PLK1Wt
PLK1 [3] = biological target: PLK1 (UniProt P53350); test: V5 co-IP, immunoblot; settings: reference: PBIP1Wt-V5; sites T78

T1 sequence (P53350 367-603 limits assumed): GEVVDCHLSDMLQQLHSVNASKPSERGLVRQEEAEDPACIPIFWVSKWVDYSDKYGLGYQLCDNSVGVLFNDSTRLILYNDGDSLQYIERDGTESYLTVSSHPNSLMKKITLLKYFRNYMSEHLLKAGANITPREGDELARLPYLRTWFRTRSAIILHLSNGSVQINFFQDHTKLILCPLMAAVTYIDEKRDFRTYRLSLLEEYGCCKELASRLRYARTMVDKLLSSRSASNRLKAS

**Q.** Which IC50 [1] does the source give for `O=C(Nc1cccc(C(C(=O)O)C(=O)O)c1)c1ccc(C(=O)c2cccc(I)c2)s1` [Polotyrin] here?
**A.** The IC50 was 115 ± 24 µM.

**Q.** With “NEDD1 (from UniProt Q8NHV4) GFP-PLK1AM (H538A/K540M)” as the compound, how does the “other: IP band intensity normalised to input” value (PLK1 [2]) read?
**A.** Its value is “lost; reference 0.2”.

**Q.** With “PBIP1 (Polo-Box Interacting Protein 1) (from UniProt Q71F23) PBIP1-T78A-V5” as the compound, how does the “other: IP band intensity normalised to input” value (PLK1 [3]) read?
**A.** The value was “weaker; reference 2.5”.
